In patent CN116574187A (ZHEJIANG SHIMAI PHARMACEUTICAL CO LTD, dated 2023):
Each block holds one binder with its values, some of them ahead of it.

How the values were obtained:
[1] = target: CD3 on TCR/CD3效应细胞 (Jurkat-NFAT-CD3) (human); experiment: cell-based or functional assay
[2] = target: 细胞表面表达的GUCY2C (HT55, SW948, LS174T-GUCY2C, HT1080-GUCY2C细胞) (human, UniProt P25092 24-1073); experiment: cell-based or functional assay
人CD3蛋白 = target: T1, 人CD3蛋白 (human); experiment: ELISA, coated human CD3 protein
T1 construct: Bought from ACRO; also called 重组人CD3; human CD3 protein (Fc标签)

人GUCY2C蛋白(His标签) [3] = target: T2, 人GUCY2C蛋白(His标签) (human, UniProt P25092 24-430); experiment: ELISA, coated human GUCY2C protein
T2 construct: Bought from ACRO; also called 重组人GUCY2C; human GUCY2C protein (His tag); not shown: His tag

人GUCY2C蛋白(His标签) [4] = target: T2, 人GUCY2C蛋白(His标签); experiment: ELISA, coated human GUCY2C protein, anti-Fc HRP detection

Chain of 细胞表面表达的GUCY2C (HT55, SW948, LS174T-GUCY2C, HT1080-GUCY2C细胞) (P25092 24-1073): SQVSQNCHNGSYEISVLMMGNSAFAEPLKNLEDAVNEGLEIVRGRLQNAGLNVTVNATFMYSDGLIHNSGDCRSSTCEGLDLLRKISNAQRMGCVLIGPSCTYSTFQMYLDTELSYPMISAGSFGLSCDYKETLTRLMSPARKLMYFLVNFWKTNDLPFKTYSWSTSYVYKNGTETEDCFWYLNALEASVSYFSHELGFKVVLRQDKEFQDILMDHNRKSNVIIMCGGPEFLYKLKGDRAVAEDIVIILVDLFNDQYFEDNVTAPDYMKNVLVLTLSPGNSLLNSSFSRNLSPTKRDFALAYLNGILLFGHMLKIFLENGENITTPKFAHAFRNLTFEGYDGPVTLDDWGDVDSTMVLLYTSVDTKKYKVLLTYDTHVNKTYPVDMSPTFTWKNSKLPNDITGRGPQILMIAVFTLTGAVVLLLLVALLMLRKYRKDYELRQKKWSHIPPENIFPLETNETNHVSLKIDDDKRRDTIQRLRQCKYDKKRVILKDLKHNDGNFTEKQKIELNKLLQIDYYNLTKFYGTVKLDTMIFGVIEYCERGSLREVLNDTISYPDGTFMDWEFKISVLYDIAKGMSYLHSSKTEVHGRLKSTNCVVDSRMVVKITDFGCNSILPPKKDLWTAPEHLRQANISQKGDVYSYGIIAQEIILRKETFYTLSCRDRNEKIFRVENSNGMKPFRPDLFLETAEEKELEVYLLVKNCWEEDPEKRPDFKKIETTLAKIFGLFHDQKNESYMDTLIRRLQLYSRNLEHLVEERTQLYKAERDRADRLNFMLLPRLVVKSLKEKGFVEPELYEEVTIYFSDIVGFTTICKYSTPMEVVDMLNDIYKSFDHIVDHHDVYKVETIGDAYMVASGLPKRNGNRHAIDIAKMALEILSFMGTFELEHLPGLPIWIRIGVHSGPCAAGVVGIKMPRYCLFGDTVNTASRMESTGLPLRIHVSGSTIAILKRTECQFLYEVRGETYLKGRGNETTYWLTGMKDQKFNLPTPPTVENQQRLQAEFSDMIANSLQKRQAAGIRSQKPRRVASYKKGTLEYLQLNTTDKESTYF
Chain of CD3 on TCR/CD3效应细胞 (Jurkat-NFAT-CD3) (human) (chain, as listed by the source): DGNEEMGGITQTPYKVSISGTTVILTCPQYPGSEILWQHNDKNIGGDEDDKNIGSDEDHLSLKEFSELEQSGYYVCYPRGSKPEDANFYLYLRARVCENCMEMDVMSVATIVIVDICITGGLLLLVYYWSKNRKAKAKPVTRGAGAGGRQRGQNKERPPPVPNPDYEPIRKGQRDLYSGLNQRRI
T2 sequence (P25092 24-430 limits assumed): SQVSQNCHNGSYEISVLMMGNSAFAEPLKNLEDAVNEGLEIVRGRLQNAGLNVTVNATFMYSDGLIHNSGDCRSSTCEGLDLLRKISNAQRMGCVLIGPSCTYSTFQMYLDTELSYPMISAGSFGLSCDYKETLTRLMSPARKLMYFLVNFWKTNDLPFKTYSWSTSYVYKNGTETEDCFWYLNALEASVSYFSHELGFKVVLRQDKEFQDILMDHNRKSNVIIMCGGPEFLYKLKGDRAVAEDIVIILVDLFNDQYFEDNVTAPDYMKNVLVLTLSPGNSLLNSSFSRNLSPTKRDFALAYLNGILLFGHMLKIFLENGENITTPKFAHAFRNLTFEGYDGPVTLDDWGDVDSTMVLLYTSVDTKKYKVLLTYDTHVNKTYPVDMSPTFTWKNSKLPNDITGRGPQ
T1 sequence (P07766 23-126): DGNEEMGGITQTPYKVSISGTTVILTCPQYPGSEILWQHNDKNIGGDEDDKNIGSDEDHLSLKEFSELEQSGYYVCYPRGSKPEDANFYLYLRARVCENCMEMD

T cell activation: Jurkat-NFAT-CD3 luciferase reporter with HT55 target cells, EC50 [1]: ~0.374 µg/mL
T cell activation: Jurkat-NFAT-CD3 luciferase reporter with LS174T-GUCY2C target cells, EC50 [1]: ~0.335 µg/mL
T cell activation: Jurkat-NFAT-CD3 luciferase reporter with SW948 target cells, EC50 [1]: ~0.519 µg/mL
T cell activation: Jurkat-NFAT-CD3 luciferase reporter with HT55 target cells, EC50 [2]: ~0.374 µg/mL
T cell activation: Jurkat-NFAT-CD3 luciferase reporter with LS174T-GUCY2C target cells, EC50 [2]: ~0.335 µg/mL
T cell activation: Jurkat-NFAT-CD3 luciferase reporter with SW948 target cells, EC50 [2]: ~0.519 µg/mL
EC50 (人CD3蛋白): 0.116 µg/mL
EC50 (人GUCY2C蛋白(His标签) [3]): 0.14 µg/mL
B1: GCC-56C9H4-M6MV1-1 (bispecific antibody, human IgG1, kappa)
light: EVQLVESGGGLVKPGGSLRLSCAASGFTFSSYAMTWVRQTPEKRLEWVATMSSGGGYTYYLDSVKGRFTISRDNAKNTLYLQMSSLRADDTAVYYCARHNYGYNYAMDYWGQGTLVTVSSGGGGSGGGGSGGGGSEIVLTQSPAIQSVSPGEKVTITCSASSSVSYIHWYQQRPGKAPKLLIYSTSNLASGVPARFSGSGSGTDFSLTISRLQAEDAATYYCQQRSSYPLTFGQGTKLEIKGSGGGGSGGGGSEIVVTQSPATLSVSPGERATLSCRSSTGAVTTSNYANWVQQKPGQAPRGLIGGANKRAPGVPARFSGSLSGDEATLTISSLQSEDFAVYYCALWYSNLWVFGQGTKLEIKRTVAAPSVFIFPPSDEQLKSGTASVVCLLNNFYPREAKVQWKVDNALQSGNSQESVTEQDSKDSTYSLSSTLTLSKADYEKHKVYACEVTHQGLSSPVTKSFNRGECGGSGSCPPCPAPEAAGAPSVFLFPPKPKDTLMISRTPEVTCVVVDVSHEDPEVKFNWYVDGVEVHNAKTKPREEQYNSTYRVVSVLTVLHQDWLNGKEYKCKVSNKALGAPIEKTISKAKGQPREPQVYTLPPSRDELTKNQVSLLCLVKGFYPSDIAVEWESNGQPENNYKTTPPVLDSDGSFFLHSKLTVDKSRWQQGNVFSCSVMHEALHNHYTQKSLSLSPG
heavy: EVQLVESGGGLVQPGGSLRLSCAASGFTFNTYAMNWVRQAPGKGLEWVARIRSKYNNYATYYADSVKGRFTISRDDSKNTLYLQMNSLRAEDTAVYYCARHGNFGSSYVSYFAYWGQGTTVTVSSASTKGPSVFPLAPSSKSTSGGTAALGCLVKDYFPEPVTVSWNSGALTSGVHTFPAVLQSSGLYSLSSVVTVPSSSLGTQTYICNVNHKPSNTKVDKKVEPKSCDKTHTCPPCPAPEAAGAPSVFLFPPKPKDTLMISRTPEVTCVVVDVSHEDPEVKFNWYVDGVEVHNAKTKPREEQYNSTYRVVSVLTVLHQDWLNGKEYKCKVSNKALGAPIEKTISKAKGQPREPQVYTLPPSRDELTKNQVSLLCLVKGFYPSDIAVEWESNGQPENNYKTTPPVLDSDGSFFLHSKLTVDKSRWQQGNVFSCSVMHEALHNHYTQKSLSLSPG
notes: Heterodimer of a 'light chain' (humanised anti-GUCY2C scFv - linker - anti-CD3 hSP34 VL-CL - mFc7.2) and a 'heavy chain' (anti-CD3 VH-CH1 - mFc7.2); expressed in 293FS or CHO-S cells; also called GUCY2C×CD3 IBiTE
killing of HT55 cells with human PBMC (CCK8), EC50 [2]: 0.0152 µg/mL
killing of LS174T-GUCY2C cells with human PBMC (CCK8), EC50 [2]: 0.00274 µg/mL
killing of SW948 cells with human PBMC (CCK8), EC50 [2]: 0.012 µg/mL

ADCC reporter: activation of Jurkat-CD16a cells in the presence of HT1080-GUCY2C cells (luciferase), EC50 [2]: ~0.0247 µg/mL
EC50 (人GUCY2C蛋白(His标签) [4]): 0.193 µg/mL
B2: GCC-56C9M mAb (antibody, human IgG1, kappa)
heavy: not shown
light: QIVLTQSPAIMSVSPGEKVTITCSASSSVSYIHWFQQRPGTSPKLWIYSTSNLASGVPARFSGSGSGTSYSLTISRMEAEDAATYYCQQRSSYPLTFGTGTKLELKRTVAAPSVFIFPPSDEQLKSGTASVVCLLNNFYPREAKVQWKVDNALQSGNSQESVTEQDSKDSTYSLSSTLTLSKADYEKHKVYACEVTHQGLSSPVTKSFNRGEC
notes: Chimeric full IgG1: Fab of mouse clone 56C9 fused to human IgG1 Fc; expressed in CHO-S cells; also called 抗GUCY2C mAb; 抗GUCY2C单克隆抗体
